T1: human CEA expressed on tumor cells (LS-174T, A549-huCEA, MKN-45, MC38-huCEA, HPAFII, BxPC-3, ASPC-1) (human, UniProt P06731 35-685)
T1 sequence (looked up): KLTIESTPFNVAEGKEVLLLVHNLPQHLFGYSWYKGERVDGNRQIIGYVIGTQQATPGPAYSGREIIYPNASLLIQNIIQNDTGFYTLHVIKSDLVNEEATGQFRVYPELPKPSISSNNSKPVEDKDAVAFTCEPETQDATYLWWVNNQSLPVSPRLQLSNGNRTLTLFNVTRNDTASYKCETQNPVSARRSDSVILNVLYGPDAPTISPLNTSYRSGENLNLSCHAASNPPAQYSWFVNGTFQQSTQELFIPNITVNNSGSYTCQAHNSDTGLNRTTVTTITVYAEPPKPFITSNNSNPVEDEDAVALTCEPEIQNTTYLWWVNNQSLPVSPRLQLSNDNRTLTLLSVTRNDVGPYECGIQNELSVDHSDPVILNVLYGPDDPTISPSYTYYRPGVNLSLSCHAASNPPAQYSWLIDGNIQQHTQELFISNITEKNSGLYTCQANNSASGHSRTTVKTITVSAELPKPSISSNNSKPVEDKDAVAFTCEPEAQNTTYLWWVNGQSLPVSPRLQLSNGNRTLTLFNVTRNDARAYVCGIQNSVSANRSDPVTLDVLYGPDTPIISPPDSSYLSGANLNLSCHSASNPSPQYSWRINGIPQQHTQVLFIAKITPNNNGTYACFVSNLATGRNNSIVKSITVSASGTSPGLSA

B1: 2 + 1 IgG Crossfab, inverted; CL/CH1 exchange (CH1A1A/V9) (anti-CEA/anti-huCD3) (bispecific antibody)
chain 1: QVQLVQSGAEVKKPGASVKVSCKASGYTFTEFGMNWVRQAPGQGLEWMGWINTKTGEATYVEEFKGRVTFTTDTSTSTAYMELRSLRSDDTAVYYCARWDFAYYVEAMDYWGQGTTVTVSSASTKGPSVFPLAPSSKSTSGGTAALGCLVKDYFPEPVTVSWNSGALTSGVHTFPAVLQSSGLYSLSSVVTVPSSSLGTQTYICNVNHKPSNTKVDKKVEPKSCDKTHTCPPCPAPEAAGGPSVFLFPPKPKDTLMISRTPEVTCVVVDVSHEDPEVKFNWYVDGVEVHNAKTKPREEQYNSTYRVVSVLTVLHQDWLNGKEYKCKVSNKALGAPIEKTISKAKGQPREPQVCTLPPSRDELTKNQVSLSCAVKGFYPSDIAVEWESNGQPENNYKTTPPVLDSDGSFFLVSKLTVDKSRWQQGNVFSCSVMHEALHNHYTQKSLSLSPGK
chain 2: DIQMTQSPSSLSASVGDRVTITCKASAAVGTYVAWYQQKPGKAPKLLIYSASYRKRGVPSRFSGSGSGTDFTLTISSLQPEDFATYYCHQYYTYPLFTFGQGTKLEIKRTVAAPSVFIFPPSDEQLKSGTASVVCLLNNFYPREAKVQWKVDNALQSGNSQESVTEQDSKDSTYSLSSTLTLSKADYEKHKVYACEVTHQGLSSPVTKSFNRGEC
chain 3: DIQMTQSPSSLSASVGDRVTITCRASQDIRNYLNWYQQKPGKAPKLLIYYTSRLESGVPSRFSGSGSGTDYTLTISSLQPEDFATYYCQQGNTLPWTFGQGTKVEIKSSASTKGPSVFPLAPSSKSTSGGTAALGCLVKDYFPEPVTVSWNSGALTSGVHTFPAVLQSSGLYSLSSVVTVPSSSLGTQTYICNVNHKPSNTKVDKKVEPKSC
chain 4: not shown
notes: also called CL/CH1-exchange construct
B2: 2 + 1 IgG Crossfab, inverted; VL/VH exchange (CH1A1A/V9) (anti-CEA/anti-huCD3) (bispecific antibody)
chain 1: EVQLVESGGGLVQPGGSLRLSCAASGYSFTGYTMNWVRQAPGKGLEWVALINPYKGVSTYNQKFKDRFTISVDKSKNTAYLQMNSLRAEDTAVYYCARSGYYGDSDWYFDVWGQGTLVTVSSASVAAPSVFIFPPSDEQLKSGTASVVCLLNNFYPREAKVQWKVDNALQSGNSQESVTEQDSKDSTYSLSSTLTLSKADYEKHKVYACEVTHQGLSSPVTKSFNRGEC
chain 2: not shown
chain 3: B1 chain 1
chain 4: B1 chain 2
notes: also called VL/VH-exchange construct

What was measured:
[1] = molecular target: T1, human CEA expressed on tumor cells …; test: cell-based or functional assay
[2] = molecular target: T2, human CD3 expressed on Jurkat cells (human, UniProt P07766 23-207); test: flow cytometry on Jurkat cells
T2 construct: CD3 complex on Jurkat T cells; also called CD3 on Jurkat cells; huCD3
T2 sequence (P07766 23-207 limits assumed): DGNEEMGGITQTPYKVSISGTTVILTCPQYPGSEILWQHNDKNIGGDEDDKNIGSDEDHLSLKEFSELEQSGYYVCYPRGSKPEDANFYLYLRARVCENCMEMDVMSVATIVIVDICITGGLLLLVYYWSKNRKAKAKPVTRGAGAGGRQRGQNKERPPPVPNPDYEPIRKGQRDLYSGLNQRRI

[3] = molecular target: T1, human CEA expressed on tumor cells …; test: flow cytometry on LS-174T cells
Experimental: Binding of the different bispecific constructs to CD3 on Jurkat cells (ATCC #TIB-152), and the respective tumor antigen on target cells, was determined by FACS. Briefly, cells were harvested, counted and checked for viability. 0.15-0.2 million cells per well (in PBS containing 0.1% BSA; 90 μl) were plated in a round-bottom 96-well plate and incubated with the indicated concentration of the bispecific constructs and corresponding IgG controls (10 μl) for 30 min at 4° C. […] After the incubation, cells were centrifuged (5 min, 350×g), washed with 150 μl PBS containing 0.1% BSA, resuspended and incubated for further 30 min at 4° C. with 12 μl/well of a FITC- or PE-conjugated secondary antibody. Bound constructs were detected using a FACSCantoII (Software FACS Diva). The “(scFv)₂” molecule was detected using a FITC-conjugated anti-His antibody (Lucerna, #RHIS-45F-Z). […] EC50 values were calculated using the GraphPad Prism software.
As a control, the equivalent maximum concentration of the corresponding IgGs and the background staining due to the labeled 2ndary antibody (goat anti-human FITC-conjugated AffiniPure F(ab′)2 Fragment, FcγFragment-specific, Jackson Immuno Research Lab #109-096-098) were assessed as well.

| Binder | EC50 of T cell-mediated killing (LDH release), LS-174T cells, human PBMCs E:T 10:1, 28 h [1] [nM] | EC50 of T cell-mediated killing (LDH release), MKN-45 cells, human PBMCs E:T 10:1, 28 h [1] [nM] | EC50 [2] [nM] | EC50 [3] [nM] |
| --- | --- | --- | --- | --- |
| B1 | 0.673 | 0.115 | 3.9 | 6.7 |
| B2 | 0.955 | 0.243 | 4.6 | 9.3 |
